Laboratory results published in patent US6942981.
Ends that are not written are not given here. * marks the point of attachment. Biotin = O=C1N[C@H]2[C@H](CS[C@H]2CCCCC(=O)*)N1

What was measured:
[1] = biological target: T1, GST-MPP2 PDZ domain fusion protein; experiment: A/G assays
T1 construct: also called maguk p55 subfamily member 2 (DLG2); MMP2; not shown: glutathione S-transferase (GST) encoded by pGEX-3X
T1 chain: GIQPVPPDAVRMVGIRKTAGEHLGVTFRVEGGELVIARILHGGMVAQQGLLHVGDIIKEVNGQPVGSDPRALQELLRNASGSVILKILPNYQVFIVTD

[2] = biological target: T2, GST-DVL1 PDZ domain fusion protein (human); experiment: A/G assays
T2 construct: also called human dishevelled segment polarity protein homolog; not shown: glutathione S-transferase (GST) encoded by pGEX-3X
T2 chain: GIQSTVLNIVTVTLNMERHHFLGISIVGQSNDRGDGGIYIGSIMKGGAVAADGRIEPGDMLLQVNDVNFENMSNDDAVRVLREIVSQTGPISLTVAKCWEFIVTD

[3] = biological target: T3, GST-SYN1a (alpha1-syntrophin) PDZ domain fusion protein (Homo sapiens (Human), UniProt Q13424 84-179); experiment: A/G assays
T3 construct: also called SYN 1 α; not shown: glutathione S-transferase (GST) encoded by pGEX-3X
T3 sequence: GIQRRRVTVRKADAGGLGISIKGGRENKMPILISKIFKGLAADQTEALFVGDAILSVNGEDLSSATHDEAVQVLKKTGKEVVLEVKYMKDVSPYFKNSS

[4] = biological target: T4, GST-MINT3 PDZ domain fusion protein (human); experiment: A/G assays
T4 construct: also called human MINT3; not shown: glutathione S-transferase (GST) encoded by pGEX-3X
T4 chain: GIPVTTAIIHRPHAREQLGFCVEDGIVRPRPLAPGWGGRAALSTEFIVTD

[5] = biological target: T5, GST-LIMK2 PDZ domain fusion protein (human, UniProt P53671 147-237); experiment: A/G assays
T5 construct: also called human LIM domain kinase 2; not shown: glutathione S-transferase (GST) encoded by pGEX-3X
T5 sequence: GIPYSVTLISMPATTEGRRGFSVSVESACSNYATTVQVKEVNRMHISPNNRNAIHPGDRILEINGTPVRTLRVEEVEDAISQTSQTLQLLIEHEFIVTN

[6] = biological target: T6, GST-TAX2 PDZ domain fusion protein (human, UniProt O14908 129-216); experiment: A/G assays
T6 construct: not shown: glutathione S-transferase (GST) encoded by pGEX-3X
T6 chain: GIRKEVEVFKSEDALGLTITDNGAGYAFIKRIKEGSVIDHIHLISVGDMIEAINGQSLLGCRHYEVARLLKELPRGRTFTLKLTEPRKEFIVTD

[7] = biological target: T7, GST-41.8 kD (hypothetical 41.8 kD protein) PDZ domain fusion protein (Mus musculus (Mouse), UniProt Q9EQZ7 682-763); experiment: A assay
T7 construct: not shown: glutathione S-transferase (GST) encoded by pGEX-3X
T7 sequence: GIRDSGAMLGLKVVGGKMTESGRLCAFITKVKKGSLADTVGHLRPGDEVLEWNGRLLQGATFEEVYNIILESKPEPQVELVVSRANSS

[8] = biological target: T8, GST-NeDLG PDZ domains 1-2 fusion protein (Mus musculus (Mouse), UniProt P70175 147-332); experiment: G assay titration of biotinylated peptide on immobilized GST-PDZ, saturation fit (apparent affinity)
T8 construct: also called NeDLG1; not shown: glutathione S-transferase (GST) encoded by pGEX-3X
T8 chain: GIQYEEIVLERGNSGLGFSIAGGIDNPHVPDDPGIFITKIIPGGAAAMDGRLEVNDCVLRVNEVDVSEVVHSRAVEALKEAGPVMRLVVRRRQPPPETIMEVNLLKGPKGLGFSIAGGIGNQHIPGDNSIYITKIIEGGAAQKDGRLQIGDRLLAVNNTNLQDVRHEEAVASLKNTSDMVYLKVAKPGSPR
Excerpt: FIGS. 2A and 2B show the Apparent Affinity Determination for PDZ-Ligand Interactions. […] The binding to GST alone (<0.2 OD units) was subtracted from the binding to the fusion proteins to obtain the signal at each peptide concentration.

[9] = biological target: T9, GST-NOS1 PDZ domain fusion protein (human, UniProt P29475 11-101); experiment: A/G assays
T9 construct: also called human neuronal nitric oxide synthase; not shown: glutathione S-transferase (GST) encoded by pGEX-3X
T9 sequence (P29475 other isoform, or with tags, fused parts or gaps): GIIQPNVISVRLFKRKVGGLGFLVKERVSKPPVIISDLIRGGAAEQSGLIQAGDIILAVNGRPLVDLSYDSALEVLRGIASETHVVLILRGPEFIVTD

[10] = biological target: T8, GST-NeDLG PDZ domains 1-2 fusion protein; experiment: A/G assays
[11] = biological target: T10, GST-KIAA0316 PDZ domain fusion protein (Homo sapiens (Human), UniProt Q14CM0 72-159); experiment: A/G assays
T10 construct: also called K316; not shown: glutathione S-transferase (GST) encoded by pGEX-3X
T10 sequence (Q14CM0 other isoform, or with tags, fused parts or gaps): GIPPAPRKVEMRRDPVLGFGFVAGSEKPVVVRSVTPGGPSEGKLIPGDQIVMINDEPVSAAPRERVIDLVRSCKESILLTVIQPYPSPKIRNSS

[12] = biological target: T11, GST-TAX33 PDZ domain fusion protein (Homo sapiens (Human), UniProt O14910 103-194); experiment: A/G assays
T11 construct: not shown: glutathione S-transferase (GST) encoded by pGEX-3X
T11 sequence: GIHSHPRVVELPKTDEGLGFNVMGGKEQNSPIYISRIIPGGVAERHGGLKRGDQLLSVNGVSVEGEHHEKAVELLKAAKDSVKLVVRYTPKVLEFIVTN

[13] = biological target: T1, GST-MPP2 PDZ domain fusion protein; experiment: G assay
[14] = biological target: T12, GST-PSD95 PDZ domains 1-3 fusion protein (human, UniProt P31016 58-395 (rat entry)); experiment: A assay
T12 construct: not shown: glutathione S-transferase (GST) encoded by pGEX-3X
T12 sequence (P31016 other isoform, or with tags, fused parts or gaps): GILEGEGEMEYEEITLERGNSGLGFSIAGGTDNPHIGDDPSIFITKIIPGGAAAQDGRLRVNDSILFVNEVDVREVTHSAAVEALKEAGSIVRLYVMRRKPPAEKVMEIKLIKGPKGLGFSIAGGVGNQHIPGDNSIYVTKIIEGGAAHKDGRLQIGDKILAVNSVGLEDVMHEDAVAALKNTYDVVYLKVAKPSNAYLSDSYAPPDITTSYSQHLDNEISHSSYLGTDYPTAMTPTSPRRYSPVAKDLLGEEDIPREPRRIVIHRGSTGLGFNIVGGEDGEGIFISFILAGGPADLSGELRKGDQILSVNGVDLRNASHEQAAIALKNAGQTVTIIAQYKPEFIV

[15] = biological target: T8, GST-NeDLG PDZ domains 1-2 fusion protein; experiment: G assay
[16] = biological target: T3, GST-SYN1a (alpha1-syntrophin) PDZ …; experiment: G assay
[17] = biological target: T13, GST-MPP1 PDZ domain fusion protein (Homo sapiens (Human), UniProt Q00013 67-152); experiment: A assay
T13 construct: also called 55 Kd erythrocyte membrane protein; not shown: glutathione S-transferase (GST) encoded by pGEX-3X
T13 sequence: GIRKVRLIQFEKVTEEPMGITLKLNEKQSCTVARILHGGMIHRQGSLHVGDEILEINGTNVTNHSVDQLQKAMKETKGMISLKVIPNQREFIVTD

[18] = biological target: T8, GST-NeDLG PDZ domains 1-2 fusion protein; experiment: A assay
[19] = biological target: T2, GST-DVL1 PDZ domain fusion protein; experiment: A assay
[20] = biological target: T8, GST-NeDLG PDZ domains 1-2 fusion protein; experiment: A and G assays

B1: CLASP-2 C-terminal peptide AA2L (peptide)
peptide: Biotin-ISGTPTSTMVHGMTSSSSVV
[1]
  binding result: no binding
[2]
  binding result: no binding
[3]
  binding result: no binding
[4]
  binding result: no binding
[5]
  binding result: no binding
[6]
  binding result: no binding
[7]
  binding result: binds
[8]
  Kd: 7.5 µM

B2: CD98 (2F4) C-terminal peptide AA15L (peptide)
peptide: Biotin-ERLKLEPHEGLLLRFPYAA
[2]
  binding result: no binding
[3]
  binding result: no binding
[4]
  binding result: no binding
[9]
  binding result: no binding
[10]
  binding result: no binding
[5]
  binding result: no binding
[11]
  binding result: no binding
[12]
  binding result: no binding
[6]
  binding result: no binding
[13]
  binding result: binds

B3: CLASP-1 C-terminal peptide AA1L (peptide)
peptide: Biotin-ISKATPALPTVSISSSAEV
[1]
  binding result: no binding
[2]
  binding result: no binding
[3]
  binding result: no binding
[4]
  binding result: no binding
[5]
  binding result: no binding
[6]
  binding result: no binding
[14]
  binding result: binds
[15]
  binding result: binds

B4: CD95 (Apo-1/Fas) C-terminal peptide AA13L (peptide)
peptide: Biotin-KDITSDSENSNFRNEIQSLV
[1]
  binding result: no binding
[2]
  binding result: no binding
[3]
  binding result: no binding
[4]
  binding result: no binding
[5]
  binding result: no binding
[6]
  binding result: no binding
[8]
  Kd: 54 µM

B5: DOCK2 C-terminal peptide AA40L (peptide)
peptide: Biotin-LASKSAEEGKQIPDSLSTDL
[1]
  binding result: no binding
[2]
  binding result: no binding
[4]
  binding result: no binding
[5]
  binding result: no binding
[6]
  binding result: no binding
[16]
  binding result: binds
[15]
  binding result: binds

B6: DNAM-1 C-terminal peptide AA22L (peptide)
peptide: Biotin-TREDIYVNYPTFSRRPKTRV
[2]
  binding result: no binding
[3]
  binding result: no binding
[4]
  binding result: no binding
[9]
  binding result: no binding
[5]
  binding result: no binding
[6]
  binding result: no binding
[17]
  binding result: binds
[18]
  binding result: binds
[13]
  binding result: binds

B7: VCAM1 C-terminal peptide AA17L (peptide)
peptide: Biotin-ARKANMKGSYSLVEAQKSKV
[1]
  binding result: no binding
[2]
  binding result: no binding
[3]
  binding result: no binding
[4]
  binding result: no binding
[5]
  binding result: no binding
[6]
  binding result: no binding
[17]
  binding result: binds
[18]
  binding result: binds

B8: CDW128A (IL8RA) C-terminal peptide AA29.1L (peptide)
peptide: Biotin-ARHRVTSYTSSSVNVSSNL
[1]
  binding result: no binding
[2]
  binding result: no binding
[3]
  binding result: no binding
[4]
  binding result: no binding
[5]
  binding result: no binding
[6]
  binding result: no binding
[18]
  binding result: binds

B9: KV1.3 C-terminal peptide AA33L (peptide)
peptide: Biotin-TTNNNPNSAVNIKKIFTDV
[1]
  binding result: no binding
[3]
  binding result: no binding
[4]
  binding result: no binding
[5]
  binding result: no binding
[6]
  binding result: no binding
[19]
  binding result: binds
[20]
  binding result: binds

B10: CDW128B (IL8RB) C-terminal peptide AA29.2L (peptide)
peptide: Biotin-KDSRPSFVGSSSGHTSTTL
[1]
  binding result: no binding
[2]
  binding result: no binding
[3]
  binding result: no binding
[4]
  binding result: no binding
[5]
  binding result: no binding
[6]
  binding result: no binding
[20]
  binding result: binds

B11: LPAP C-terminal peptide AA30L (peptide)
peptide: Biotin-AWDDSARAAGGQGLHVTAL
[1]
  binding result: no binding
[2]
  binding result: no binding
[3]
  binding result: no binding
[4]
  binding result: no binding
[9]
  binding result: no binding
[10]
  binding result: no binding
[5]
  binding result: no binding
[11]
  binding result: no binding
[6]
  binding result: no binding

B12: CD46 (form 1) C-terminal peptide AA10L (peptide)
peptide: Biotin-KKGTYLTDETHREVKFTSL
[1]
  binding result: no binding
[2]
  binding result: no binding
[3]
  binding result: no binding
[4]
  binding result: no binding
[5]
  binding result: no binding
[6]
  binding result: no binding
[15]
  binding result: binds

B13: CD83 C-terminal peptide AA47L (peptide)
peptide: Biotin-VTSPNKHLGLVTPHKTELV
[1]
  binding result: no binding
[2]
  binding result: no binding
[3]
  binding result: no binding
[4]
  binding result: no binding
[5]
  binding result: no binding
[6]
  binding result: no binding
[18]
  binding result: binds
